Measured values taken from patent publication US20260274955A1 (JANUX THERAPEUTICS, published 2026).

B1: Phage-550 (peptide)
peptide: YCDGHAPEYLTKCL
notes: on phage, pIII fusion; cell for position 6 is missing in the printed row

Experiments:
[1] = biological target: T1, anti-CD28 Fab (SEQ ID NOs: 202, 203); assay: phage ELISA on captured Fab, wells pre-incubated with CD28 antigen (competitor);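 note: clonal phage ELISA with wells pretreated with CD28 plus blocking buffer before phage addition, bound phage detected by HRP-linked anti-M13 antibody, reference wells got blocking buffer only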
T1 construct: biotinylated and captured on neutravidin coated plates in the phage ELISA
T1 sequence (VH, as listed by the source, chain 1 of 2): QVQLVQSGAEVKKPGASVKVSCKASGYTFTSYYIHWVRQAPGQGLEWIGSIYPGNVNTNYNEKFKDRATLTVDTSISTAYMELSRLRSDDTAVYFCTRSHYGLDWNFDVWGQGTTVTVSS
T1 sequence (VL, as listed by the source, chain 2 of 2): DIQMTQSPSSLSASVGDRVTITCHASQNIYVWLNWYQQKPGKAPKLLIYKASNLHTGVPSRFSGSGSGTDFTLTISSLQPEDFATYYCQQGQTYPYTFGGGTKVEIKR
Experimental: (§1) Clonal phage were harvested as crude supernatants and screened via standard ELISAs. […] Prior to the addition of clonal phage, wells were incubated with blocking buffer and CD28 antigen or blocking buffer alone. Without washing or aspirating, clonal phage supernatants were then added to the wells and incubated for a short time. Wells were then washed followed by detection of bound phage using a horse radish conjugated anti-M13 antibody.

[2] = biological target: T1, anti-CD28 Fab (SEQ ID NOs: 202, 203); assay: phage ELISA on captured Fab;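 note: ELISA with clonal phage supernatants added to wells preincubated with CD28 antigen or with blocking buffer only, bound phage detected by HRP-conjugated anti-M13 antibody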
Experimental: as §1

| Binder | Anti-CD28 Fab signal in the presence of CD28 [1] | Anti-CD28 Fab (SEQ ID NOs: 202, 203) signal [2] |
| --- | --- | --- |
| YCDGHELKYMLKCL (on phage, pIII fusion) [Phage-502] | 0.08 | 1.62 |
| YCSGHLPQYLEKCL (on phage, pIII fusion) [Phage-567] | 0.31 | 1.5 |
| YCEGHSEEFMSKCL (on phage, pIII fusion) [Phage-532] | 0.08 | 1.57 |
| YCEGHAPVYMFKCL (on phage, pIII fusion) [Phage-547] | 0.08 | 1.54 |
| YCDGHKAEYMQKCL (on phage, pIII fusion) [Phage-565] | 0.06 | 1.5 |
| YCDGHHKEYLLKCL (on phage, pIII fusion) [Phage-568] | 0.06 | 1.49 |
| YCDGHLLEYKAKCL (on phage, pIII fusion) [Phage-503] | 0.07 | 1.62 |
| YCEGHLAIYQKKCL (on phage, pIII fusion) [Phage-592] | 0.06 | 1.44 |
| YCDGHSVEYLDKCL (on phage, pIII fusion) [Phage-553] | 0.08 | 1.53 |
| YCAGHLPVYMDKCL (on phage, pIII fusion) [Phage-557] | 0.08 | 1.52 |
| YCDGHLDVYRAKCL (on phage, pIII fusion) [Phage-491] | 0.09 | 1.63 |
| YCAGHLPEYMGKCL (on phage, pIII fusion) [Phage-496] | 0.07 | 1.63 |
| YCEGHSSEYMWKCL (on phage, pIII fusion) [Phage-490] | 0.09 | 1.63 |
| YCDGHSEQYIAKCL (on phage, pIII fusion) [Phage-572] | 0.08 | 1.49 |
| YCQGHADEYMAKCL (on phage, pIII fusion) [Phage-528] | 0.08 | 1.58 |
| YCAGHLAIYMSKCL (on phage, pIII fusion) [Phage-497] | 0.08 | 1.63 |
| YCDGHLAVYMAKCL (on phage, pIII fusion) [Phage-556] | 0.08 | 1.52 |
| YCDGHSWQYMWKCI (on phage, pIII fusion) [Phage-531] | 0.09 | 1.57 |
| YCAGHSPQYMEKCL (on phage, pIII fusion) [Phage-506] | 0.06 | 1.61 |
| YCEGHIMQYMAQCL (on phage, pIII fusion) [Phage-570] | 0.06 | 1.49 |
| YCQGHIEPYLAKCL (on phage, pIII fusion) [Phage-586] | 0.05 | 1.46 |
| YCEGHLEQYMQKCL (on phage, pIII fusion) [Phage-492] | 0.06 | 1.63 |
| YCAGHLEEYMWKCL (on phage, pIII fusion) [Phage-559] | 0.08 | 1.51 |
| YCDGHAKEYIQKCL (on phage, pIII fusion) [Phage-526] | 0.06 | 1.58 |
| YCDGHAEEYLLKCL (on phage, pIII fusion) [Phage-529] | 0.05 | 1.57 |
| YCEGHSVEYIGKCL (on phage, pIII fusion) [Phage-521] | 0.07 | 1.59 |

| Binder | Anti-CD28 Fab signal in the presence of CD28 [1] | Anti-CD28 Fab (SEQ ID NOs: 202, 203) signal [2] |
| --- | --- | --- |
| YCAGHSSEYIPKCL (on phage, pIII fusion) [Phage-524] | 0.09 | 1.58 |
| YCDGHLPEYLAKCL (on phage, pIII fusion) [Phage-555] | 0.06 | 1.52 |
| YCDGHLSEYMSKCL (on phage, pIII fusion) [Phage-498] | 0.06 | 1.62 |
| YCEGHADEYMWKCL (on phage, pIII fusion) [Phage-520] | 0.06 | 1.59 |
| YCEGHVTEYMQKCL (on phage, pIII fusion) [Phage-499] | 0.08 | 1.62 |
| YCEGHSWVYMAKCL (on phage, pIII fusion) [Phage-493] | 0.07 | 1.63 |
| YCDGHLQIYMGKCL (on phage, pIII fusion) [Phage-552] | 0.06 | 1.53 |
| B1 | 0.06 | 1.53 |
| YCEGHLPQYMTKCI (on phage, pIII fusion) [Phage-590] | 0.08 | 1.44 |
| YCEGHLGIYMTKCL (on phage, pIII fusion) [Phage-530] | 0.08 | 1.57 |
| YCEGHSWEHMEKCL (on phage, pIII fusion) [Phage-523] | 0.06 | 1.58 |
| YCDGHSEAFMQKCL (on phage, pIII fusion) [Phage-495] | 0.07 | 1.63 |
| YCDGHLPQYLQKCT (on phage, pIII fusion) [Phage-525] | 0.07 | 1.58 |
| YCDGHAEEYMAKCL (on phage, pIII fusion) [Phage-588] | 0.06 | 1.45 |
| YCDGHLPIYQAKCL (on phage, pIII fusion) [Phage-571] | 0.1 | 1.49 |
| YCDGHSPEYMLKCL (on phage, pIII fusion) [Phage-505] | 0.07 | 1.61 |
| YCEGHSIQYMTKCL (on phage, pIII fusion) [Phage-551] | 0.13 | 1.53 |
| YCDGHLALHMKKCL (on phage, pIII fusion) [Phage-569] | 0.08 | 1.49 |
| YCDGHAWQYMWKCL (on phage, pIII fusion) [Phage-554] | 0.07 | 1.53 |
| YCEGHLPQYMVKCL (on phage, pIII fusion) [Phage-527] | 0.07 | 1.58 |
| YCEGHLGQYMEKCL (on phage, pIII fusion) [Phage-548] | 0.08 | 1.54 |
| YCAGHLPQYIQKCL (on phage, pIII fusion) [Phage-591] | 0.07 | 1.44 |
| YCEGHAVEYMAKCL (on phage, pIII fusion) [Phage-593] | 0.07 | 1.44 |
| YCDGHLAIYMWKCL (on phage, pIII fusion) [Phage-587] | 0.09 | 1.45 |
| YCDGHNGVYWWKCI (on phage, pIII fusion) [Phage-549] | 0.07 | 1.53 |
| YCEGHSAMYIWKCL (on phage, pIII fusion) [Phage-558] | 0.1 | 1.52 |
